Test results published in US20240189439A1 (Novartis, published 2024).

Experiments:
[1] = target: T1, cyno PMEL17 (cyno, UniProt A0A2K5WWN0 25-668); assay: FACS titration of IgG on HKB11-cyno-PMEL17 cells, Alexa Fluor detection antibody
T1 construct: whole, on cells; also called HKB11-cyno; HKB11-cyno-PMEL17
T1 sequence: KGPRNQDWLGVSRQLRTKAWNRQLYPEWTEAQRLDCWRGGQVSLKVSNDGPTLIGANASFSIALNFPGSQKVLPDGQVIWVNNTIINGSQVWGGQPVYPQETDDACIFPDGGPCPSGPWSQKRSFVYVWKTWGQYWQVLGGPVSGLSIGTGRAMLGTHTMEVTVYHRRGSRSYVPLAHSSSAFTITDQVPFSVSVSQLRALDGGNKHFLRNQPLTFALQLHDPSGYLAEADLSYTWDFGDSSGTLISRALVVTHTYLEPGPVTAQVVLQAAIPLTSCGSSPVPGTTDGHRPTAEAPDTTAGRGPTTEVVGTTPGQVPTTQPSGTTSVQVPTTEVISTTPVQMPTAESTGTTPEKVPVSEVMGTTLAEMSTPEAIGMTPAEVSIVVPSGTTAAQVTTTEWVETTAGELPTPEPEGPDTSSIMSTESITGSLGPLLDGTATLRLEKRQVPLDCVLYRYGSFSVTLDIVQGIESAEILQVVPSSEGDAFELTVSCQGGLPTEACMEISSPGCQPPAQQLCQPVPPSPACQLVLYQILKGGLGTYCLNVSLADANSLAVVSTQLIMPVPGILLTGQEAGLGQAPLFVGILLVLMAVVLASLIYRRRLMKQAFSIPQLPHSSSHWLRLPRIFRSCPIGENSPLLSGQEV
Protocol: (§1) Purified IgGs were titrated on a variety of PMEL17 expressing and PMEL17 non expressing cell lines (for control) to determine EC50 values. Cells were harvested using Accutase, adjusted to ˜4×10^6 cells/ml into FACS buffer (PBS, 3% FCS and 0.02% Na-Azide) and kept on ice to avoid internalization. 15 μl of cell suspension/well were transferred into 384 well V-bottom plates (Greiner, Cat #781280) and incubated with 15 μl of IgGs at different concentrations (most commonly from 200 to 3.5×10-3 nM) for 1 hour at 4° C., gently shaking. Following incubation, cells were washed three times with FACS buffer. After each washing step, cells were centrifuged (250×g, 5 min, 4° C.) and carefully resuspended. 15 p of detection antibody conjugated to PE (PE-conjugated goat anti-human IgG, F(ab′)₂ fragment specific, 1:150 in FACS buffer; Jackson Immuno Research, #109-116-097) or Alexa Fluor (Alexa Fluor-conjugated goat anti-human IgG, F(ab′)2 fragment specific, 1:150 in FACS buffer; Jackson Immuno Research, #109-606-097) were added and samples were incubated for 45 minutes to 1 hour on ice in the dark, gently shaking. After 3 washing steps, cells were resuspended in 30 μl of FACS buffer and samples were measured using the IntelliCyt HTFC device. EC50 values were calculated using the Graphpad Prism software.

[2] = target: T2, mouse PMEL17 (mouse, UniProt Q60696 24-626); assay: FACS titration of IgG on B16-F10 cells (mouse melanoma), Alexa Fluor detection antibody
T2 construct: whole, on cells; also called B16-F10 (mouse)
T2 sequence (looked up): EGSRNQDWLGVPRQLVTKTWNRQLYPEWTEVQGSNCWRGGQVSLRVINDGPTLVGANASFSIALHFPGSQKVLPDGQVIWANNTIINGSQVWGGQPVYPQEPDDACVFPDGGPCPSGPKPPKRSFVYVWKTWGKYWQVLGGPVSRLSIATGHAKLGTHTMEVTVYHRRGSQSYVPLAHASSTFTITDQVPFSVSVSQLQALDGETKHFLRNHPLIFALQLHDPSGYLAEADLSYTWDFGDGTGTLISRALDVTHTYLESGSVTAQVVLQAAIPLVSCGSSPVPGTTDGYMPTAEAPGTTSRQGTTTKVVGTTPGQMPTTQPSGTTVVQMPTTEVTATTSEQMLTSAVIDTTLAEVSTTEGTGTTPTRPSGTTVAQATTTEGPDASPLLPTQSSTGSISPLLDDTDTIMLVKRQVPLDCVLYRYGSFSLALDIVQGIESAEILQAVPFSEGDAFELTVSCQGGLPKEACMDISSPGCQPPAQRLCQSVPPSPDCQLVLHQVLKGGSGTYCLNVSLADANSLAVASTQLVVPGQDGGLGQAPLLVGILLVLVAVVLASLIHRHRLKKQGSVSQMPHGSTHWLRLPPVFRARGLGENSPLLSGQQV
Protocol: as §1

[3] = target: rat PMEL17 (rat, UniProt D3ZED8 73-680); assay: FACS titration of IgG on HKB11-rat PMEL17 cells, Alexa Fluor detection antibody
Sequence of rat PMEL17 (D3ZED8 entry or part of it): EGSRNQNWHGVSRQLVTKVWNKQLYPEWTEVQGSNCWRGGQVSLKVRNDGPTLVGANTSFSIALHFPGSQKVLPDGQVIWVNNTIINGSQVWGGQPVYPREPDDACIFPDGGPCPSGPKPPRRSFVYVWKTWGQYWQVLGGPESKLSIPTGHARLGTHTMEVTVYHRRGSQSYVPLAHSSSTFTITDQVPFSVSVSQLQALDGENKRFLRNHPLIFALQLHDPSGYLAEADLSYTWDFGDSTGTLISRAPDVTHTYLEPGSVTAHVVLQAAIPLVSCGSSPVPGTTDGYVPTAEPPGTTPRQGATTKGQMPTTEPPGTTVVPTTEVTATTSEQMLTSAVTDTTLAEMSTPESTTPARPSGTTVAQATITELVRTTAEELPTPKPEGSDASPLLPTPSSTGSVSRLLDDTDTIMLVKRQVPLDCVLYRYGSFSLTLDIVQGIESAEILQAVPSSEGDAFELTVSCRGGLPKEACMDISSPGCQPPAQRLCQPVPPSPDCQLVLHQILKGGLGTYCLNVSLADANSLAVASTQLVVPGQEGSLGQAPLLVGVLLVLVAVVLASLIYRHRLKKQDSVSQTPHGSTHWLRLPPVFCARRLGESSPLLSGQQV
Protocol: as §1

B1: Y010906 (antibody, V domains shown)
VH: EVQLVESGGGLVKPGGSLRLSCAASGFTFSNAWMSWVRQAPGKGLEWVGRIKSKTDAGTTDYAAPVKGRFTISRDDSKNTLYLQMNSLKTEDTAVYYCARDEYPWGWFDVWGQGTLVTVSS
VL: DIQMTQSPSSVSASVGDRVTITCRASQGISSWLAWYQQKPGKAPKLLIYAASSLQSGVPSRFSGSGSGTDFTLTISSLQPEDFATYYCQQYIFYPLTFGQGTKVEIK
notes: Tested as purified human IgG
EC50 [1]: 2 nM
EC50 [2]: 140 nM
EC50 [3]: 21.7 nM

B2: Y010900 (antibody, V domains shown)
VH: EVQLVESGGGLVKPGGSLRLSCAASGFTFSNAWMSWVRQAPGKGLEWVGRIKSKTDAGTTDYAAPVKGRFTISRDDSKNTLYLQMNSLKTEDTAVYYCARTIYPSAPSSSLDYWGQGTLVTVSS
VL: DIQMTQSPSSLSASVGDRVTITCRASQGISNYLAWYQQKPGKVPKLLIYAASTLQSGVPSRFSGSGSGTDFTLTISSLQPEDVATYYCQQLIFFPLTFGQGTKVEIK
notes: Tested as purified human IgG
EC50 [1]: 1.2 nM
EC50 [3]: 9.3 nM

B3: Y010355 (antibody, V domains shown)
VH: EVQLVESGGGLVKPGGSLRLSCAASGFTFSNYWISWVRQAPGKGLEWVGRIKSKTYGGTTDYAEPVKGRFTISRDDSKNTLYLQMNSLKTEDTAVYYCARTSRRSYAFDYWGQGTLVTVSS
VL: DIQMTQSPSTLSASVGDRVTITCRASQSISSWLAWYQQKPGKAPKLLIYDASSLESGVPSRFSGSGSGTEFTLTISSLQPEDFATYYCQQITRYPVTFGQGTKVEIK
notes: Tested as purified human IgG
EC50 [1]: 3.9 nM
EC50 [2]: 0.8 nM
EC50 [3]: 0.8 nM

B4: Y010356 (antibody, V domains shown)
VH: EVQLVESGGGLVKPGGSLRLSCAASGFTFSNYWISWVRQAPGKGLEWVGRIKSKTYGGTTDYAEPVKGRFTISRDDSKNTLYLQMNSLKTEDTAVYYCARVSGYYSHSGGFDVWGQGTLVTVSS
VL: DIQMTQSPSSLSASVGDRVTITCRASQGISNYLAWYQQKPGKVPKLLIYAASTLQSGVPSRFSGSGSGTDFTLTISSLQPEDVATYYCQKTWRTPGTFGQGTKVEIK
notes: Tested as purified human IgG
EC50 [1]: 4.5 nM
EC50 [2]: 1.4 nM
EC50 [3]: 1.4 nM

B5: Y010429 (antibody, V domains shown)
VH: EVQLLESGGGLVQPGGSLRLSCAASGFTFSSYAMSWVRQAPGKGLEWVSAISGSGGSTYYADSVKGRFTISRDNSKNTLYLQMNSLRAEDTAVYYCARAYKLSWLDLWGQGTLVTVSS
VL: DIQMTQSPSSLSASVGDRVTITCRASQSISSYLNWYQQKPGKAPKLLIYAASSLQSGVPSRFSGSGSGTDFTLTISSLQPEDFATYYCQQVWYAPVTFGQGTKVEIK
notes: Tested as purified human IgG
EC50 [1]: 10.7 nM
EC50 [2]: 60.2 nM
EC50 [3]: 1.5 nM

B6: MOR024354 (antibody, V domains shown)
VH: QVQLLESGGGLVQPGGSLRLSCAASGFTFSSFGMSWVRQAPGKGLEWVSAISYSGSDTYYADSVKGRFTISRDNSKNTLYLQMNSLRAEDTAVYYCARDVGVMDYWGQGTLVTVSS
VL: SYELTQPLSVSVALGQTARITCSGDNLGTYYAHWYQQKPGQAPVLVIYSQSHRPSGIPERFSGSNSGNTATLTISRAQAGDEADYYCGAWDAPSPELVFGGGTKLTVL
notes: Tested as purified human IgG
EC50 [1]: 2.1 nM
EC50 [3]: 2.4 nM

B7: Y010415 (antibody, V domains shown)
VH: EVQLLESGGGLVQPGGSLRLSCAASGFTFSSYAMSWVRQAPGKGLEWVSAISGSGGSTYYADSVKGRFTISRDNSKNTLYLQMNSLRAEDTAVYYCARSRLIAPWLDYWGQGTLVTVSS
VL: DIQMTQSPSSLSASVGDRVTITCRASQSISSYLNWYQQKPGKAPKLLIYAASSLQSGVPSRFSGSGSGTDFTLTISSLQPEDFATYYCQQVYGSPPTFGQGTKVEIK
notes: Tested as purified human IgG
EC50 [1]: 5.4 nM
EC50 [3]: 0.4 nM

B8: Y010903 (antibody, V domains shown)
VH: EVQLVESGGGLVKPGGSLRLSCAASGFTFSNAWMSWVRQAPGKGLEWVGRIKSKTDAGTTDYAAPVKGRFTISRDDSKNTLYLQMNSLKTEDTAVYYCARASHRLHSLFDVWGQGTLVTVSS
VL: DIQMTQSPSTLSASVGDRVTITCRASQSISSWLAWYQQKPGKAPKLLIYDASSLESGVPSRFSGSGSGTEFTLTISSLQPEDFATYYCQQGLFYPHTFGQGTKVEIK
notes: Tested as purified human IgG
EC50 [1]: 2 nM
EC50 [2]: 928 nM
EC50 [3]: 5.6 nM

B9: Y010910 (antibody, V domains shown)
VH: EVQLVESGGGLVKPGGSLRLSCAASGFTFSNAWMSWVRQAPGKGLEWVGRIKSKTDAGTTDYAAPVKGRFTISRDDSKNTLYLQMNSLKTEDTAVYYCARVASPSAPGGFDYWGQGTLVTVSS
VL: DIQMTQSPSSLSASVGDRVTITCRASQGISNYLAWYQQKPGKVPKLLIYAASTLQSGVPSRFSGSGSGTDFTLTISSLQPEDVATYYCQQSLFAPFTFGQGTKVEIK
notes: Tested as purified human IgG
EC50 [1]: 3.5 nM
EC50 [2]: 41.1 nM
EC50 [3]: 13.7 nM

B10: MOR024353 (antibody, V domains shown)
VH: QVQLVQSGAEVKKPGSSVKVSCKASGGTFSDYAISWVRQAPGQGLEWMGGIIPIFGDANYAQKFQGRVTITADESTSTAYMELSSLRSEDTAVYYCAREGSSYFYMAYWGQGTLVTVSS
VL: SYELTQPLSVSVALGQTARITCSGDNIGSKLASWYQQKPGQAPVLVIYDDSNRPSGIPERFSGSNSGNTATLTISRAQAGDEADYYCAATAGDRWAYVFGGGTKLTVL
notes: Tested as purified human IgG
EC50 [1]: 1.6 nM
EC50 [3]: 7.5 nM

B11: Y010417 (antibody, V domains shown)
VH: EVQLVQSGAEVKKPGESLKISCKGSGYSFTSYWIGWVRQMPGKGLEWMGIIYPGDSDTRYSPSFQGQVTISADKSISTAYLQWSSLKASDTAMYYCARGSSAASGLSGDLWGQGTLVTVSS
VL: DIQMTQSPSSLSASVGDRVTITCRASQSISSYLNWYQQKPGKAPKLLIYAASSLQSGVPSRFSGSGSGTDFTLTISSLQPEDFATYYCQQDYYSPFTFGQGTKVEIK
notes: Tested as purified human IgG
EC50 [1]: 6.3 nM
